In the assay the target is KCNQ1 H363C in the cysteine-less background (human) (UniProt P51787).

Results on one substance are retold here after PMC2888057.

In turn, “KCNE1 D76C in the cysteine-less, HA-tagged background (from UniProt P15382 1-129) (natural protein)” displayed a time constant of oxidant (0.1% H2O2)-induced current reduction, H363C with D76C of 50 s.
